Results published in patent US9618524B2, “Method, composition, isolation and identification of a plaque particle and related biomarker” (Plaxgen Inc., priority 2012, dated 2017).

B1: Beta-2-glycoprotein 1 (protein)
chain: GRTCPKPDDLPFSTVVPLKTFYEPGEEITYSCKPGYVSRGGMRKFICPLTGLWPINTLKCTPRVCPFAGILENGAVRYTTFEYPNTISFSCNTGFYLNGADSAKCTEEGKWSPELPVCAPIICPPPSIPTFATLRVYKPSAGNNSLYRDTAVFECLPQHAMFGNDTITCTTHGNWTKLPECREVKCPFPSRPDNGFVNYPAKPTLYYKDKATFGCHDGYSLDGPEEIECTKLGNWSAMPSCKASCKVPVKKATVVYQGERVKIQEKFKNGMLHGDKVSFFCKNKEKKCSYTEDAQCIDGTIEVPKCFKEHSSLAFWKTDASDVKPC
B2: Afamin (protein)
chain: LPTQPRDIENFNSTQKFIEDNIEYITIIAFAQYVQEATFEEMEKLVKDMVEYKDRCMADKTLPECSKLPNNVLQEKICAMEGLPQKHNFSHCCSKVDAQRRLCFFYNKKSDVGFLPPFPTLDPEEKCQAYESNRESLLNHFLYEVARRNPFVFAPTLLTVAVHFEEVAKSCCEEQNKVNCLQTRAIPVTQYLKAFSSYQKHVCGALLKFGTKVVHFIYIAILSQKFPKIEFKELISLVEDVSSNYDGCCEGDVVQCIRDTSKVMNHICSKQDSISSKIKECCEKKIPERGQCIINSNKDDRPKDLSLREGKFTDSENVCQERDADPDTFFAKFTFEYSRRHPDLSIPELLRIVQIYKDLLRNCCNTENPPGCYRYAEDKFNETTEKSLKMVQQECKHFQNLGKDGLKYHYLIRLTKIAPQLSTEELVSLGEKMVTAFTTCCTLSEEFACVDNLADLVFGELCGVNENRTINPAVDHCCKTNFAFRRPCFESLKADKTYVPPPFSQDLFTFHADMCQSQNEELQRKTDRFLVNLVKLKHELTDEELQSLFTNFANVVDKCCKAESPEVCFNEESPKIGN
B3: Histidine-rich glycoprotein (protein)
chain: VSPTDCSAVEPEAEKALDLINKRRRDGYLFQLLRIADAHLDRVENTTVYYLVLDVQESDCSVLSRKYWNDCEPPDSRRPSEIVIGQCKVIATRHSHESQDLRVIDFNCTTSSVSSALANTKDSPVLIDFFEDTERYRKQANKALEKYKEENDDFASFRVDRIERVARVRGGEGTGYFVDFSVRNCPRHHFPRHPNVFGFCRADLFYDVEALDLESPKNLVINCEVFDPQEHENINGVPPHLGHPFHWGGHERSSTTKPPFKPHGSRDHHHPHKPHEHGPPPPPDERDHSHGPPLPQGPPPLLPMSCSSCQHATFGTNGAQRHSHNNNSSDLHPHKHHSHEQHPHGHHPHAHHPHEHDTHRQHPHGHHPHGHHPHGHHPHGHHPHGHHPHCHDFQDYGPCDPPPHNQGHCCHGHGPPPGHLRRRGPGKGPRPFHCRQIGSVYRLPPLRKGEVLPLPEANFPSFPLPHHKHPLKPDNQPFPQSVSESCPGKFKSGFPQVSMFFTHTFPK

The molecules below were run against T1, alpha-synuclein plaque particles (Homo sapiens, UniProt P37840) (assay: Mass spectroscopy proteomics, semi-quantitative binding affinity of serum proteins (plaqueproteome, Table 2)). Conditions: higher number = stronger affinity.
T1 construct: 140 amino acids polypeptide
How it was run: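 AD-subject plasma or serum (800 μL of 50%) mixed with 30 μg preformed alpha-synuclein aggregates for 1 h at 37 °C; Thioflavin S-positive particles isolated by flow sorting. After reduction, acrylamide alkylation and overnight tryptic digestion, serum proteins identified by MS/MS with Sequest and Scaffold.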

Point of comparison: B2, “Semi-quantitative analysis of proteins binding to different plaque particles: Synuclein” value 6. Against it:
- B1 — higher, 7
- B3 — higher, 9

Each molecule was assayed against T2, Abeta-42 plaque particles (Homo sapiens, UniProt P05067) in the same assay as above. Conditions: higher number = stronger affinity.
T2 construct: Abeta 1-42
How it was run: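 AD patient serum or plasma (50% in PBS) was incubated with Abeta-42 aggregates (30 μg) for 1 h at 37 °C, then stained with Thioflavin S for 30 min. Labeled particles were FACS-sorted, trypsin/Lys-C digested overnight and analyzed by MS/MS. Sequest searched human UniProt; Scaffold/Protein Prophet validated the identifications.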

Point of comparison: B1, “Semi-quantitative analysis of proteins binding to different plaque particles: Abeta-42” value 4. Against it:
- B2 — lower, 2
- B3 — higher, 7

These molecules were tested on Low density cholesterol (Chl small) plaque particles in the same assay as above. Conditions: higher number = stronger affinity.
Design: species or system human
How it was run: (§1)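 Read-out is MS/MS protein identification (Sequest, strict trypsin, 20 ppm parent tolerance; Scaffold probabilities) of serum proteins bound to flow-sorted cholesterol plaque particles. These particles formed when 50% atherosclerotic serum was incubated with 30 μg cholesterol aggregates for 1 hr at 37° C.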

Point of comparison: B2, “Semi-quantitative analysis of proteins binding to different plaque particles: Chl small” value 6. Against it:
- B1 — the same, 6
- B3 — higher, 9

Each molecule was assayed on High Density cholesterol (Chl Large) plaque particles in the same assay as above. Conditions: higher number = stronger affinity.
Design: species or system human
How it was run: as §1

Point of comparison: B3, “Semi-quantitative analysis of proteins binding to different plaque particles: Chl Large” value 10. Against it:
- B1 — lower, 6
- B2 — lower, 6

The molecules below were run on Tau plaque particles in the same assay as above. Conditions: higher number = stronger affinity.
Design: species or system human
How it was run: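 Serum or plasma proteins captured on Thioflavin S-labelled Tau plaque particles (Tau-74, Tau-275 oligomers preformed in PBS at 37° C for 2 h; 1 h co-incubation at 37° C) were isolated by FACS sorting, then tryptically digested and identified by MS/MS (Sequest, human UniProt, strict trypsin).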

Point of comparison: B1, “Semi-quantitative analysis of proteins binding to different plaque particles: Tau” value 5. Against it:
- B2 — lower, 3
- B3 — higher, 12
